From US20250154198A1, “PEPTIDE INHIBITORS OF INTERLEUKIN-23 RECEPTOR” (Zealand Pharma A/S, priority 2021, published 2025)
*1 amine or outer side, *2 acyl side, *3 side chain or, on linkers, in order; H or OH if unused. Bridges are numbered along the chain shown (N, C = ends). Primed or numbered codes have the meaning given here. Where no end group is shown, it is not given here. [ ]: non-standard residue; d: D form. 4‑Aminomethyl‑phenylacetyl = 4-aminomethyl-phenylacetyl unit, its amine closes the lactam, O=C(Cc1ccc(CN[*:1])cc1)[*:2]; 1,3‑dibromopropan‑2‑one = linker (CAS 816-39-7) joining two Cys as 1,3-dithio-propan-2-one bridge -SCH2C(=O)CH2S-; 1,3‑dibromopropan‑2‑one(3) = linker giving 1,3-dithio-propan-2-one bridge -SCH2C(=O)CH2S- between Cys; Phe(3,4-Me2) = Cc1ccc(C[C@H](N)C(=O)O)cc1C; 2Nal = N[C@@H](Cc1ccc2ccccc2c1)C(=O)O; AEF = NCCOc1ccc(C[C@H](N)C(=O)O)cc1; 3Pal = N[C@@H](Cc1cccnc1)C(=O)O; d3Pal = N[C@H](Cc1cccnc1)C(=O)O; αMeL = CC(C)C[C@](C)(N)C(=O)O; αMeV = CC(C)[C@](C)(N)C(=O)O; 3Amb = NCc1cccc(C(=O)O)c1; Dab = NCC[C@H](N)C(=O)O

T1: human IL-23R endogenously expressed on DB cells (CRL-2289) (human, UniProt Q5VWK5 24-629)
T1 sequence (looked up): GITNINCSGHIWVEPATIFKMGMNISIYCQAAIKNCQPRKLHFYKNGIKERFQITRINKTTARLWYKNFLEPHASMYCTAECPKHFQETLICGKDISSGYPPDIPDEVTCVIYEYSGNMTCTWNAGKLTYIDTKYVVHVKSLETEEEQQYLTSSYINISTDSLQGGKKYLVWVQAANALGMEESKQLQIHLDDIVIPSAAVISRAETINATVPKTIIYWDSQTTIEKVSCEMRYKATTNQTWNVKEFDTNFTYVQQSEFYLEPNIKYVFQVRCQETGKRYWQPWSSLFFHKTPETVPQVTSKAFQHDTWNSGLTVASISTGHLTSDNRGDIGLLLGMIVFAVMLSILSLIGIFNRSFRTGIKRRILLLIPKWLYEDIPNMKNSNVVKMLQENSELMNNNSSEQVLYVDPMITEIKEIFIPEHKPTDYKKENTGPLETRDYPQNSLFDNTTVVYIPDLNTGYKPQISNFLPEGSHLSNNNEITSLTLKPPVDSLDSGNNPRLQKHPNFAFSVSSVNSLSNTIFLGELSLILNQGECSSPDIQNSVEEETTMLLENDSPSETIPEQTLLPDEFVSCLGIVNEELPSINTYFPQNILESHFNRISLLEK


Biological target: T1, human IL-23R endogenously expressed on …
Experiment: cell-based or functional assay

| IC50 (pSTAT3) | Binder |
| --- | --- |
| > 1 µM | Ac-DESCWCWWLKR-NH2 (lactam 2-10; linker 4-6 via 1,3‑dibromopropan‑2‑one) [Ref 6] |
| > 1 µM | DESTWQYWWLKR (HELM PEPTIDE1{D.E.S.T.W.Q.Y.W.W.L.K.R.[am]}$PEPTIDE1,PEPTIDE1,2:R3-11:R3$$$V2.0; SMILES CC(C)C[C@@H]1NC(=O)[C@H](Cc2c[nH]c3ccccc23)NC(=O)[C@H](Cc2c[nH]c3ccccc23)NC(=O)[C@H](Cc2ccc(O)cc2)NC(=O)[C@H](CCC(N)=O)NC(=O)[C@H](Cc2c[nH]c3ccccc23)NC(=O)[C@H]([C@@H](C)O)NC(=O)[C@H](CO)NC(=O)[C@@H](NC(=O)[C@@H](N)CC(=O)O)CCC(=O)NCCCC[C@@H](C(=O)N[C@@H](CCCNC(=N)N)C(N)=O)NC1=O) [Ref 3] |
| > 1 µM | DESSWQSWWLKR (HELM PEPTIDE1{D.E.S.S.W.Q.S.W.W.L.K.R.[am]}$PEPTIDE1,PEPTIDE1,2:R3-11:R3$$$V2.0; SMILES CC(C)C[C@@H]1NC(=O)[C@H](Cc2c[nH]c3ccccc23)NC(=O)[C@H](Cc2c[nH]c3ccccc23)NC(=O)[C@H](CO)NC(=O)[C@H](CCC(N)=O)NC(=O)[C@H](Cc2c[nH]c3ccccc23)NC(=O)[C@H](CO)NC(=O)[C@H](CO)NC(=O)[C@@H](NC(=O)[C@@H](N)CC(=O)O)CCC(=O)NCCCC[C@@H](C(=O)N[C@@H](CCCNC(=N)N)C(N)=O)NC1=O) [Ref 2] |
| > 1 µM | Ac-DECWQCWWLKR-NH2 (lactam 2-10; linker 3-6 via 1,3‑dibromopropan‑2‑one) [Ref 5] |
| 0.635 nM | [4‑Aminomethyl‑phenylacetyl]IEWQ[Dab][AEF][Phe(3,4-Me2)][αMeV]EG[3Pal]-NH2 (lactam (positions not given here); lactam 3-6; not fully specified (bridges); printed as [4-Aminomethyl-phenylacetyl](1c)*IE(2c)WQ[Dab](2c)[Y(2-aminoethoxy)][F(3,4-Me)][2-Me-Val]E(1c)G[3-(3-Pyridyl)-Ala]-[NH2]) [Compound 158] |

Continued, binder first:

| Binder | IC50 (pSTAT3) |
| --- | --- |
| Ac-DESCWQCWWKR-NH2 (lactam 2-10; linker 4-7 via 1,3‑dibromopropan‑2‑one) [Ref 7] | > 1 µM |
| DESMWQMWWLKR (HELM PEPTIDE1{[ac].D.E.S.M.W.Q.M.W.W.L.K.R.[am]}$PEPTIDE1,PEPTIDE1,3:R3-12:R3$$$V2.0; SMILES CSCC[C@@H]1NC(=O)[C@H](CO)NC(=O)[C@@H](NC(=O)[C@H](CC(=O)O)NC(C)=O)CCC(=O)NCCCC[C@@H](C(=O)N[C@@H](CCCNC(=N)N)C(N)=O)NC(=O)[C@H](CC(C)C)NC(=O)[C@H](Cc2c[nH]c3ccccc23)NC(=O)[C@H](Cc2c[nH]c3ccccc23)NC(=O)[C@H](CCSC)NC(=O)[C@H](CCC(N)=O)NC(=O)[C@H](Cc2c[nH]c3ccccc23)NC1=O) [Ref 4] | > 1 µM |
| [3Amb]SCWQC[AEF][2Nal][αMeL]ER[3‑Amino‑3‑(3'-pyridyl)propionyl]-NH2 (lactam (positions not given here); linker 3-6 via 1,3‑dibromopropan‑2‑one(3); not fully specified (bridges); printed as [(3-Aminomethyl)benzoyl](1c)*SC(2a)WQC(2a)][Y(2-aminoethoxy)][2-Nal][2-Me-Leu]E(1c)R[3-Amino-3-(3′-pyridyl)propionyl]-[NH2]) [Compound 151] | 10.7 nM |
| [4‑Aminomethyl‑phenylacetyl]IEWQ[Dab][AEF][2Nal][αMeV]E[Dab][3Pal]-NH2 (lactam (positions not given here); lactam 3-6; not fully specified (bridges); printed as [4-Aminomethyl-phenylacetyl](1c)*IE(2c)WQ[Dab](2c)[Y(2-aminoethoxy)][2-Nal][2-Me-Val]E(1c)[Dab][3-(3-Pyridyl)-Ala]-[NH2]) [Compound 157] | 31.8 pM |
| [3Amb]IEWQ[Dab][AEF][2Nal][αMeV]E[Dab][3Pal]-NH2 (lactam (positions not given here); lactam 3-6; not fully specified (bridges)) [Compound 156] | 85.7 pM |
| [3Amb]SCWQC[AEF][2Nal][αMeL]ER[d3Pal]-NH2 (lactam (positions not given here); linker 3-6 via 1,3‑dibromopropan‑2‑one(3); not fully specified (bridges); printed as [(3-Aminomethyl)benzoyl](1c)*SC(2a)WQC(2a)][Y(2-aminoethoxy)][2-Nal][2-Me-Leu]E(1c)R[{d}[3-(3-Pyridyl)-Ala]]-[NH2]) [Compound 150] | 14.3 nM |
